For 10 molecules, Ka, koff and kon results are on record in patent publication US6072035.

Assay [1] concerns the target human IgE; monoclonal antibody SE44 (human) (UniProt P01854). As to the kind of experiment: BIAcore, antibody captured by anti-human IgG, IgE SE44 as analyte.
Assay [2] shares this target. Put plainly: BIAcore, antibody captured by anti-mouse IgG1, IgE SE44 as analyte.

One may read the koff as the rate constant with which the complex falls apart. One may read the kon as the rate constant with which the complex forms. High values mean faster complex formation, low ones slower complex formation.

Where a chain is given by its changes, count along the chain named.

B1: reshaped human C21 antibody C21-H1/L3 (antibody, V domains shown)
VH: QVQLVQSGAEVKKPGASVKVSCKASGYTFSMYWLEWVKQRPGHGLEWVGEISPGTFTTNYNEKFKAKATFTADTSTNTAYMELSSLTSEDTAVYYCARFSHFSG
VL: EIVLTQSPGTLSLSPGERATLSCRASQSIGTNIHWYQQKPGQAPRLLIKYASESISGIPSRFSGSGSGTDFTLTISRLEPEDFAMYYCQQSDSWPTTFGQGTKVEIK
For the molecule B1, in assay [1], the Ka worked out at 4.7e+09 M⁻¹, the koff is 6.2e-05 s⁻¹ and the kon turned out to be 290000 M⁻¹ s⁻¹.

B2: reshaped human C21 antibody C21-H3/L2 (antibody, V domains shown)
VH: B1 VH with K38R, R40A, K67R, T87R
VL: B1 VL with E1D, V3L, S60D
As to B2, in assay [1], the Ka turned out to be 5.7e+09 M⁻¹, the koff came to 4.4e-05 s⁻¹ and the kon is 250000 M⁻¹ s⁻¹.

B3: reshaped human C21 antibody C21-H3/L1 (antibody, V domains shown)
VH: B1 VH with K38R, R40A, K67R, T87R
VL: DILLTQSPGTLSLSPGERATLSCRASQSIGTNIHWYQQKPGQAPRLLIKYASESISGIPSRFSGSGSGTDFTLTISRLEPEDFAMYY
On to B3, for which, in assay [1], the Ka is 1.32e+10 M⁻¹, the off-rate constant (koff) stood at 1.9e-05 s⁻¹ and the kon was 250000 M⁻¹ s⁻¹.

B4: reshaped human C21 antibody C21-H1/L2 (antibody, V domains shown)
VH: B1 VH
VL: B1 VL with E1D, V3L, S60D
Consider B4, for which, in assay [1], the Ka amounted to 4.9e+09 M⁻¹, the off-rate (koff) is 5.7e-05 s⁻¹ and the kon stood at 280000 M⁻¹ s⁻¹.

B5: reshaped human C21 antibody C21-Hay3/L2 (antibody, V domains shown)
VH: QVQLVQSGAEVKKPGASVKVSCKASGYTFSMYWLEWVRQAPGQRLEWMGEISPGTFTTNYNEKFKARATFTADTSASTAYMELSSLRSEDTAVYYCARFSHFSGSNYDYFDYWGQGTLVTVSS
VL: B1 VL with E1D, V3L, S60D
Consider B5, for which, in assay [1], the Ka came to 8.1e+09 M⁻¹, the dissociation rate constant (koff) is 3.1e-05 s⁻¹ and the on-rate (kon) was determined as 250000 M⁻¹ s⁻¹.

B6: reshaped human C21 antibody C21-Hay3/L3 (antibody, V domains shown)
VH: B5 VH
VL: B1 VL
As to B6, in assay [1], the Ka amounted to 1.6e+09 M⁻¹, the koff is 0.000159 s⁻¹ and the kon is 260000 M⁻¹ s⁻¹.

B7: reshaped human C21 antibody C21-H1/L1 (antibody, V domains shown)
VH: B1 VH
VL: B3 VL
Consider B7, for which, in assay [1], the Ka was found to be 8.7e+09 M⁻¹, the koff turned out to be 3e-05 s⁻¹ and the kon was determined as 260000 M⁻¹ s⁻¹.

B8: reshaped human C21 antibody C21-H3/L3 (antibody, V domains shown)
VH: B1 VH with K38R, R40A, K67R, T87R
VL: B1 VL
In assay [1], B8 registered a Ka of 7.4e+09 M⁻¹, a koff of 3.5e-05 s⁻¹ and a kon of 260000 M⁻¹ s⁻¹.

B9: murine monoclonal antibody TES-C21 (antibody, V domains shown)
VH: QVQLQQSGAELMKPGASVKISCKTTGYTFSMYWLEWVKQRPGHGLEWVGEISPGTFTTNYNEKFKAKATFTADTSSNTAYLQLSGLTSEDSAVYFCARFSHFSGSNYDYFDYWGQGTSLTVSS
VL: DILLTQSPAILSVSPGERVSFSCRASQSIGTNIHWYQQRTDGSPRLLIKYASESISGIPSRFSGSGSGTEFTLNINSVESEDIADYYCQQSDSWPTTFGGGTKLEIK
Take B9: in assay [2], the Ka turned out to be 9.2e+09 M⁻¹, the koff turned out to be 2.6e-05 s⁻¹ and the kon turned out to be 240000 M⁻¹ s⁻¹.

B10: reshaped human C21 antibody C21-Hay3/L1 (antibody, V domains shown)
VH: B5 VH
VL: B3 VL
In the case of B10, in assay [1], the Ka was 6.1e+09 M⁻¹, the koff amounted to 4.1e-05 s⁻¹ and the kon amounted to 250000 M⁻¹ s⁻¹.
